Patent publication US7820375 (INSTITUT NATIONAL DE LA SANTE ET DE LA RECHERCHE MEDICALE …, dated 2010)

T1: LexA-CRMP5 (complete human CRMP 5 protein fused to LexA, bait) (human, UniProt P0A7C2 1-202; Q9BPU6 1-564)
T1 sequence (looked up): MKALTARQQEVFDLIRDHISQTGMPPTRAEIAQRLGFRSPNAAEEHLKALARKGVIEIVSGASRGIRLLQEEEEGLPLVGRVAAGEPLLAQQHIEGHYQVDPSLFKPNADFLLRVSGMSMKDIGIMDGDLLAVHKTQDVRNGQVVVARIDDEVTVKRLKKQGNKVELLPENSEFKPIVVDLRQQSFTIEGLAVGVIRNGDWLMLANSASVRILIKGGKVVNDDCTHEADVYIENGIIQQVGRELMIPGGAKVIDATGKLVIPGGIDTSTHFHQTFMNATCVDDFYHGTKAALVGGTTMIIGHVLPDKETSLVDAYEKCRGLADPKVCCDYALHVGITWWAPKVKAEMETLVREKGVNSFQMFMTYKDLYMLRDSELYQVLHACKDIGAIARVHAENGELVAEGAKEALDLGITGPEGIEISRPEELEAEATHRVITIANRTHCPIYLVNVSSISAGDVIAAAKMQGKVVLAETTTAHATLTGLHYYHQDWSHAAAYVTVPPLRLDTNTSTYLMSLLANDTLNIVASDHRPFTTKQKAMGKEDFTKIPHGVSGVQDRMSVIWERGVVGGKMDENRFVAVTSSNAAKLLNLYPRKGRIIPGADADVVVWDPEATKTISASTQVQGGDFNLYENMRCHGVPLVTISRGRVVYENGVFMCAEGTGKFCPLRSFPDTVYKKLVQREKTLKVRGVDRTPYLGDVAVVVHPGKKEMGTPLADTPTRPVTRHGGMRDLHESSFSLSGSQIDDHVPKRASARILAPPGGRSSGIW

B1: Act-CRMP5 (complete human CRMP 5 protein fused to NLS-B42-HA, prey) (other, UniProt Q9BPU6 1-564, looked up, not shown: large carriers)
chain: MLANSASVRILIKGGKVVNDDCTHEADVYIENGIIQQVGRELMIPGGAKVIDATGKLVIPGGIDTSTHFHQTFMNATCVDDFYHGTKAALVGGTTMIIGHVLPDKETSLVDAYEKCRGLADPKVCCDYALHVGITWWAPKVKAEMETLVREKGVNSFQMFMTYKDLYMLRDSELYQVLHACKDIGAIARVHAENGELVAEGAKEALDLGITGPEGIEISRPEELEAEATHRVITIANRTHCPIYLVNVSSISAGDVIAAAKMQGKVVLAETTTAHATLTGLHYYHQDWSHAAAYVTVPPLRLDTNTSTYLMSLLANDTLNIVASDHRPFTTKQKAMGKEDFTKIPHGVSGVQDRMSVIWERGVVGGKMDENRFVAVTSSNAAKLLNLYPRKGRIIPGADADVVVWDPEATKTISASTQVQGGDFNLYENMRCHGVPLVTISRGRVVYENGVFMCAEGTGKFCPLRSFPDTVYKKLVQREKTLKVRGVDRTPYLGDVAVVVHPGKKEMGTPLADTPTRPVTRHGGMRDLHESSFSLSGSQIDDHVPKRASARILAPPGGRSSGIW
B2: LexA (bait vector without insert) (other)
chain: MKALTARQQEVFDLIRDHISQTGMPPTRAEIAQRLGFRSPNAAEEHLKALARKGVIEIVSGASRGIRLLQEEEEGLPLVGRVAAGEPLLAQQHIEGHYQVDPSLFKPNADFLLRVSGMSMKDIGIMDGDLLAVHKTQDVRNGQVVVARIDDEVTVKRLKKQGNKVELLPENSEFKPIVVDLRQQSFTIEGLAVGVIRNGDWL
notes: range 1-202

What was measured:
[1] = molecular target: T1, LexA-CRMP5 (complete human CRMP 5 …); test: yeast two-hybrid by conjugation, LexA bait and Act prey, lacZ reporter (X-gal)
[2] = molecular target: B1; test: yeast two-hybrid by conjugation, lacZ reporter (X-gal)

| Binder | binding result [1] | binding result [2] |
| --- | --- | --- |
| B1 | binds | – |
| B2 | – | no binding |
